Results on seven molecules are retold here after patent publication US6936708, “Expression of Alfin 1 and methods for producing transgenic plants having increased root growth and root specific gene activation” (Arizona Board of Regents, acting for and on behalf of …).

Data set [1] concerns the target T1, Alfin1 (Medicago sativa, UniProt Q40359 Q40359:1-257).
T1 sequence: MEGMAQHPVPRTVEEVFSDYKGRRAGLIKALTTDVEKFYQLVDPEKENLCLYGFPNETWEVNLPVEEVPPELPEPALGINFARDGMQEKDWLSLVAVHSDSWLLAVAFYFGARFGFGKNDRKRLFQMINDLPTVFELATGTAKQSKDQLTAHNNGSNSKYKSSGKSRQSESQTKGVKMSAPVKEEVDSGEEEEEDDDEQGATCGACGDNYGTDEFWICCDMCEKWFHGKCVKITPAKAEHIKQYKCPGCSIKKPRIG
As to the kind of experiment: DNA sequence that binds Alfin1 in vitro. The source says:
(§1) To identify DNA sequences that are recognized by Alfin1 protein, the purified Alfin1 protein was used in the "random DNA binding" assay (See: Rauscher III F. J., Morris J. F., Tournay O. E., Cook D. M., Curran T. *Binding of the Wilm's tumor locus* zinc finger protein to the EGR-1 consensus sequence. Science, 1990; 250, 1259–1262) and the bound DNA purified by four rounds of PCR amplification and binding, followed by cloning of the isolated sequences.

Data set [2] deals with T1, Alfin1. The data set is described as follows: DNA sequence that binds Alfin1 in vitro; listed identical to SEQ 4.
Excerpt: as §1

B1: Alfin1 binding sequence SEQ 6 (dsDNA)
DNA 1: GACGGGTAGGGTGTGGGGGGTGTTTTATT
DNA 2: AATAAAACACCCCCCACACCCTACCCGTC
Regarding B1, the binding result with Alfin1 [1] is recorded as “binds”.

B2: Alfin1 binding sequence SEQ 7 (dsDNA)
DNA 1: GACGGGGATAGGTGAGGTGGAGGGACAAT
DNA 2: ATTGTCCCTCCACCTCACCTATCCCCGTC
With B2, the binding result with Alfin1 [1] is “binds”.

B3: Alfin1 binding sequence SEQ 9 (dsDNA)
DNA 1: GACGGCGGGAAGGAGTGTGGTAGAGAGCC
DNA 2: GGCTCTCTACCACACTCCTTCCCGCCGTC
For B3, the binding result with Alfin1 [1] is “binds”.

B4: Alfin1 binding sequence SEQ 4 (dsDNA)
DNA 1: GACGCAAAGGGGGTGGGGACGGCGCTTTT
DNA 2: AAAAGCGCCGTCCCCACCCCCTTTGCGTC
Turning to B4, the binding result with Alfin1 [1] was “binds”.

B5: Alfin1 binding sequence SEQ 10 (dsDNA)
DNA 1: GACGAAGGAAGGACGGCAGCGTGTTGC
DNA 2: GCAACACGCTGCCGTCCTTCCTTCGTC
Regarding B5, the binding result in the data set with Alfin1 [1] was “binds”.

B6: Alfin1 binding sequence SEQ 8 (dsDNA)
DNA 1: GACGGCAGAAGGGAGAAACGTGGAGAATC
DNA 2: GATTCTCCACGTTTCTCCCTTCTGCCGTC
As for B6, in the data set with Alfin1 [1], the binding result is recorded as “binds”.

B7: Alfin1 binding sequence SEQ 5 (dsDNA)
DNA 1: GACGCAAAGGGGGTGGGGACGGCGCTTTT
DNA 2: AAAAGCGCCGTCCCCACCCCCTTTGCGTC
Turning to B7, the binding result in the data set with Alfin1 [2] is “binds”.
